# Data as given in patent publication US20190338009A1 (ZEALAND PHARMA A S, published 2019).
# Square brackets hold non-standard residues; d marks the D form. Aib = CC(C)(N)C(=O)O
# B1: Compound 33 (peptide)
# peptide: H-H[Aib]EGTFTSELATILDEQAARDFINWLIAHKITD-OH
# SMILES: CC[C@H](C)[C@H](NC(=O)[C@H](CC(C)C)NC(=O)[C@H](Cc1c[nH]c2ccccc12)NC(=O)[C@H](CC(N)=O)NC(=O)[C@@H](NC(=O)[C@H](Cc1ccccc1)NC(=O)[C@H](CC(=O)O)NC(=O)[C@H](CCCNC(=N)N)NC(=O)[C@H](C)NC(=O)[C@H](C)NC(=O)[C@H](CCC(N)=O)NC(=O)[C@H](CCC(=O)O)NC(=O)[C@H](CC(=O)O)NC(=O)[C@H](CC(C)C)NC(=O)[C@@H](NC(=O)[C@@H](NC(=O)[C@H](C)NC(=O)[C@H](CC(C)C)NC(=O)[C@H](CCC(=O)O)NC(=O)[C@H](CO)NC(=O)[C@@H](NC(=O)[C@H](Cc1ccccc1)NC(=O)[C@@H](NC(=O)CNC(=O)[C@H](CCC(=O)O)NC(=O)C(C)(C)NC(=O)[C@@H](N)Cc1c[nH]cn1)[C@@H](C)O)[C@@H](C)O)[C@@H](C)O)[C@@H](C)CC)[C@@H](C)CC)C(=O)N[C@@H](C)C(=O)N[C@@H](Cc1c[nH]cn1)C(=O)N[C@@H](CCCCN)C(=O)N[C@H](C(=O)N[C@H](C(=O)N[C@@H](CC(=O)O)C(=O)O)[C@@H](C)O)[C@@H](C)CC
# B2: Compound 2 (peptide)
# peptide: H-H[Aib]EGTFSSELATILDEQAARDFIAWLIAHKITD-OH
# SMILES: CC[C@H](C)[C@H](NC(=O)[C@H](CC(C)C)NC(=O)[C@H](Cc1c[nH]c2ccccc12)NC(=O)[C@H](C)NC(=O)[C@@H](NC(=O)[C@H](Cc1ccccc1)NC(=O)[C@H](CC(=O)O)NC(=O)[C@H](CCCNC(=N)N)NC(=O)[C@H](C)NC(=O)[C@H](C)NC(=O)[C@H](CCC(N)=O)NC(=O)[C@H](CCC(=O)O)NC(=O)[C@H](CC(=O)O)NC(=O)[C@H](CC(C)C)NC(=O)[C@@H](NC(=O)[C@@H](NC(=O)[C@H](C)NC(=O)[C@H](CC(C)C)NC(=O)[C@H](CCC(=O)O)NC(=O)[C@H](CO)NC(=O)[C@H](CO)NC(=O)[C@H](Cc1ccccc1)NC(=O)[C@@H](NC(=O)CNC(=O)[C@H](CCC(=O)O)NC(=O)C(C)(C)NC(=O)[C@@H](N)Cc1c[nH]cn1)[C@@H](C)O)[C@@H](C)O)[C@@H](C)CC)[C@@H](C)CC)C(=O)N[C@@H](C)C(=O)N[C@@H](Cc1c[nH]cn1)C(=O)N[C@@H](CCCCN)C(=O)N[C@H](C(=O)N[C@H](C(=O)N[C@@H](CC(=O)O)C(=O)O)[C@@H](C)O)[C@@H](C)CC
# B3: Compound 28 (peptide)
# peptide: H-H[Aib]EGSFTSELATILDEQAARDFIAWLYAHKITD-OH
# SMILES: CC[C@H](C)[C@H](NC(=O)[C@H](Cc1ccccc1)NC(=O)[C@H](CC(=O)O)NC(=O)[C@H](CCCNC(=N)N)NC(=O)[C@H](C)NC(=O)[C@H](C)NC(=O)[C@H](CCC(N)=O)NC(=O)[C@H](CCC(=O)O)NC(=O)[C@H](CC(=O)O)NC(=O)[C@H](CC(C)C)NC(=O)[C@@H](NC(=O)[C@@H](NC(=O)[C@H](C)NC(=O)[C@H](CC(C)C)NC(=O)[C@H](CCC(=O)O)NC(=O)[C@H](CO)NC(=O)[C@@H](NC(=O)[C@H](Cc1ccccc1)NC(=O)[C@H](CO)NC(=O)CNC(=O)[C@H](CCC(=O)O)NC(=O)C(C)(C)NC(=O)[C@@H](N)Cc1c[nH]cn1)[C@@H](C)O)[C@@H](C)O)[C@@H](C)CC)C(=O)N[C@@H](C)C(=O)N[C@@H](Cc1c[nH]c2ccccc12)C(=O)N[C@@H](CC(C)C)C(=O)N[C@@H](Cc1ccc(O)cc1)C(=O)N[C@@H](C)C(=O)N[C@@H](Cc1c[nH]cn1)C(=O)N[C@@H](CCCCN)C(=O)N[C@H](C(=O)N[C@H](C(=O)N[C@@H](CC(=O)O)C(=O)O)[C@@H](C)O)[C@@H](C)CC
# B4: Compound 31 (peptide)
# peptide: H-H[Aib]EGSFTSELATILDGKAARDFIAWLIAHKITD-OH
# SMILES: CC[C@H](C)[C@H](NC(=O)[C@H](CC(C)C)NC(=O)[C@H](Cc1c[nH]c2ccccc12)NC(=O)[C@H](C)NC(=O)[C@@H](NC(=O)[C@H](Cc1ccccc1)NC(=O)[C@H](CC(=O)O)NC(=O)[C@H](CCCNC(=N)N)NC(=O)[C@H](C)NC(=O)[C@H](C)NC(=O)[C@H](CCCCN)NC(=O)CNC(=O)[C@H](CC(=O)O)NC(=O)[C@H](CC(C)C)NC(=O)[C@@H](NC(=O)[C@@H](NC(=O)[C@H](C)NC(=O)[C@H](CC(C)C)NC(=O)[C@H](CCC(=O)O)NC(=O)[C@H](CO)NC(=O)[C@@H](NC(=O)[C@H](Cc1ccccc1)NC(=O)[C@H](CO)NC(=O)CNC(=O)[C@H](CCC(=O)O)NC(=O)C(C)(C)NC(=O)[C@@H](N)Cc1c[nH]cn1)[C@@H](C)O)[C@@H](C)O)[C@@H](C)CC)[C@@H](C)CC)C(=O)N[C@@H](C)C(=O)N[C@@H](Cc1c[nH]cn1)C(=O)N[C@@H](CCCCN)C(=O)N[C@H](C(=O)N[C@H](C(=O)N[C@@H](CC(=O)O)C(=O)O)[C@@H](C)O)[C@@H](C)CC
# B5: Compound 30 (peptide)
# peptide: H-H[Aib]EGSFTSELATILDEQAARDFIAWLYRHKITD-OH
# SMILES: CC[C@H](C)[C@H](NC(=O)[C@H](Cc1ccccc1)NC(=O)[C@H](CC(=O)O)NC(=O)[C@H](CCCNC(=N)N)NC(=O)[C@H](C)NC(=O)[C@H](C)NC(=O)[C@H](CCC(N)=O)NC(=O)[C@H](CCC(=O)O)NC(=O)[C@H](CC(=O)O)NC(=O)[C@H](CC(C)C)NC(=O)[C@@H](NC(=O)[C@@H](NC(=O)[C@H](C)NC(=O)[C@H](CC(C)C)NC(=O)[C@H](CCC(=O)O)NC(=O)[C@H](CO)NC(=O)[C@@H](NC(=O)[C@H](Cc1ccccc1)NC(=O)[C@H](CO)NC(=O)CNC(=O)[C@H](CCC(=O)O)NC(=O)C(C)(C)NC(=O)[C@@H](N)Cc1c[nH]cn1)[C@@H](C)O)[C@@H](C)O)[C@@H](C)CC)C(=O)N[C@@H](C)C(=O)N[C@@H](Cc1c[nH]c2ccccc12)C(=O)N[C@@H](CC(C)C)C(=O)N[C@@H](Cc1ccc(O)cc1)C(=O)N[C@@H](CCCNC(=N)N)C(=O)N[C@@H](Cc1c[nH]cn1)C(=O)N[C@@H](CCCCN)C(=O)N[C@H](C(=O)N[C@H](C(=O)N[C@@H](CC(=O)O)C(=O)O)[C@@H](C)O)[C@@H](C)CC
# B6: Compound 32 (peptide)
# peptide: H-H[Aib]EGTFSSELATILDGKAARDFIAWLIAHKITD-OH
# SMILES: CC[C@H](C)[C@H](NC(=O)[C@H](CC(C)C)NC(=O)[C@H](Cc1c[nH]c2ccccc12)NC(=O)[C@H](C)NC(=O)[C@@H](NC(=O)[C@H](Cc1ccccc1)NC(=O)[C@H](CC(=O)O)NC(=O)[C@H](CCCNC(=N)N)NC(=O)[C@H](C)NC(=O)[C@H](C)NC(=O)[C@H](CCCCN)NC(=O)CNC(=O)[C@H](CC(=O)O)NC(=O)[C@H](CC(C)C)NC(=O)[C@@H](NC(=O)[C@@H](NC(=O)[C@H](C)NC(=O)[C@H](CC(C)C)NC(=O)[C@H](CCC(=O)O)NC(=O)[C@H](CO)NC(=O)[C@H](CO)NC(=O)[C@H](Cc1ccccc1)NC(=O)[C@@H](NC(=O)CNC(=O)[C@H](CCC(=O)O)NC(=O)C(C)(C)NC(=O)[C@@H](N)Cc1c[nH]cn1)[C@@H](C)O)[C@@H](C)O)[C@@H](C)CC)[C@@H](C)CC)C(=O)N[C@@H](C)C(=O)N[C@@H](Cc1c[nH]cn1)C(=O)N[C@@H](CCCCN)C(=O)N[C@H](C(=O)N[C@H](C(=O)N[C@@H](CC(=O)O)C(=O)O)[C@@H](C)O)[C@@H](C)CC
# B7: Compound 29 (peptide)
# peptide: H-H[Aib]EGTFTDELATILDEQAARDFIAWLQAQKITD-OH
# SMILES: CC[C@H](C)[C@H](NC(=O)[C@H](Cc1ccccc1)NC(=O)[C@H](CC(=O)O)NC(=O)[C@H](CCCNC(=N)N)NC(=O)[C@H](C)NC(=O)[C@H](C)NC(=O)[C@H](CCC(N)=O)NC(=O)[C@H](CCC(=O)O)NC(=O)[C@H](CC(=O)O)NC(=O)[C@H](CC(C)C)NC(=O)[C@@H](NC(=O)[C@@H](NC(=O)[C@H](C)NC(=O)[C@H](CC(C)C)NC(=O)[C@H](CCC(=O)O)NC(=O)[C@H](CC(=O)O)NC(=O)[C@@H](NC(=O)[C@H](Cc1ccccc1)NC(=O)[C@@H](NC(=O)CNC(=O)[C@H](CCC(=O)O)NC(=O)C(C)(C)NC(=O)[C@@H](N)Cc1c[nH]cn1)[C@@H](C)O)[C@@H](C)O)[C@@H](C)O)[C@@H](C)CC)C(=O)N[C@@H](C)C(=O)N[C@@H](Cc1c[nH]c2ccccc12)C(=O)N[C@@H](CC(C)C)C(=O)N[C@@H](CCC(N)=O)C(=O)N[C@@H](C)C(=O)N[C@@H](CCC(N)=O)C(=O)N[C@@H](CCCCN)C(=O)N[C@H](C(=O)N[C@H](C(=O)N[C@@H](CC(=O)O)C(=O)O)[C@@H](C)O)[C@@H](C)CC
# Target: human glucagon-like peptide 1 receptor (GLP-1R) (human, UniProt P43220 24-463)
# Assay: cell-based or functional assay
row,Binder,"EC50 GLP-1 (nM); cAMP AlphaScreen, HEK293 cells expressing human GLP-1R [nM]"
1,B1,0.004
2,B2,0.046
3,B3,0.11
4,B4,0.02
5,B5,0.1
6,B6,0.038
7,B7,0.044

# Target: T1, human GLP-2 receptor (hGLP2-R) (human, UniProt O95838 1-553)
# T1 sequence (looked up): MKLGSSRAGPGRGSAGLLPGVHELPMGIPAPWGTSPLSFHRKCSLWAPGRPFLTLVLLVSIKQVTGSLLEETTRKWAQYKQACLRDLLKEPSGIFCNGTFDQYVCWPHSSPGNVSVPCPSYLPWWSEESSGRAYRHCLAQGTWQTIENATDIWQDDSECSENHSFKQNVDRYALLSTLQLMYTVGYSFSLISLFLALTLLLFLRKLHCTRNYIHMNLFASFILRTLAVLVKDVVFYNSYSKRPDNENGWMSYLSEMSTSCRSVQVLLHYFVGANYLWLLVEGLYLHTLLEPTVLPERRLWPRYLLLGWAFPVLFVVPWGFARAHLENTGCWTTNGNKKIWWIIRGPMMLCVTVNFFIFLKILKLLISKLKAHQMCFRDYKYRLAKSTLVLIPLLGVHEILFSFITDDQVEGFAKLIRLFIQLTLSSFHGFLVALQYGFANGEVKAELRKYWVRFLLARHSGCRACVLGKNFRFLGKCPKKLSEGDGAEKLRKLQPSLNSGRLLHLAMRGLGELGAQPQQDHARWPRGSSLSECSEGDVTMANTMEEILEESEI
# Assay: cell-based or functional assay
row,Binder,"EC50 GLP-2 (nM); cAMP AlphaScreen, HEK293 cells expressing human GLP-2R [nM]"
1,B1,0.041
2,B2,0.034
3,B3,0.024
4,B4,0.078
5,B5,0.034
6,B6,0.15
7,B7,0.11
